# How the values were obtained:
# [1] = target: PPARgamma2/RXRalpha heterodimer (Homo sapiens / Mus musculus, UniProt P37231;P28700 P37231:1-505,P28700:1-467); experiment: EMSA; pH 7.9, 40 mM KCl, on ice; self-competition almost complete; conditions: tags: rabbit reticulocyte lysate (Promega); label: 32P (T4-PNK)
# Procedure: (§1) To analyze whether PPARγ could bind to a PPRE, classically composed of direct repeats spaced by one intervening nucleotide (DR-1), EMSA was performed using in vitro transcribed/translated PPARγ2 protein. An oligonucleotide containing a high affinity PPRE, previously identified in the apoA-II promoter J site, was used in EMSA (29).
# (§2) 7. Electrophoretic Mobility Shift Assays (EMSA) and Oligonucleotide Sequences haPPARγ (39), hPPARγ2, and mRXRα (40) proteins were synthesized in vitro in rabbit reticulocyte lysate (Promega). Molecular weights and quality of the in vitro translated proteins were verified by SDS-PAGE. PPAR (2 μl) and/or RXR (2 μl) were incubated for 15 min on ice in a total volume of 20 μl with 1-ng probe, 2.5 μg of poly(dI-dC) and 1 μg of herring sperm DNA in binding buffer (10 mM Tris-HCl pH 7.9, 40 mMKCl, 10% glycerol, 0.05% Nonidet P-40, and 1 mM dithiothreitol). For competition experiments, increasing amounts (from 10- to 200-fold molar excess) of cold oligonucleotide (AII-J-PPRE, 5'-[…]-3' (41) SEQ ID NO: 24; acyl-CoA oxidase (ACO)-PPRE, 5'-[…]-3' (42) SEQ ID NO: 25; or LPL-PPRE, 5'-[…]-3 (23) SEQ ID NO: 26; were included just before adding T4-PNK end-labeled AII-J-PPRE oligonucleotide. DNA-protein complexes were separated by electrophoresis on a 4% polyacrylamide gel in 0.25×TBE buffer at 4° C. (43).
# RXRalpha = target: T1, RXRalpha (Mus musculus, UniProt P28700 P28700:1-467); experiment: EMSA; homodimer, no PPAR; conditions: tags: rabbit reticulocyte lysate (Promega); label: 32P (T4-PNK)
# T1 sequence: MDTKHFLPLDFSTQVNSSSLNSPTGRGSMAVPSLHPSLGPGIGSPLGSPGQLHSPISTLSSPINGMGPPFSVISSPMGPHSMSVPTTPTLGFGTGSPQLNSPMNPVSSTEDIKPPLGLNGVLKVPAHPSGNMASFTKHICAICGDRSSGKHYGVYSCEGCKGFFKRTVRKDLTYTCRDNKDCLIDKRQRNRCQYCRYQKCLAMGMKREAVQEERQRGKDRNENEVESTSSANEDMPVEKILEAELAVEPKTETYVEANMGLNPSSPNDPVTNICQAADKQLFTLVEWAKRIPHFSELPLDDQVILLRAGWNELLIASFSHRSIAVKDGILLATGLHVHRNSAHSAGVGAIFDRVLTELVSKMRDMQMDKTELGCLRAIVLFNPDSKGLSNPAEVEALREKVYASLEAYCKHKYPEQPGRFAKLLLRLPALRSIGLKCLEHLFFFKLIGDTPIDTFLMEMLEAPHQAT
# Procedure: as §1, §2
# PPARgamma2 = PPARgamma2 (Homo sapiens, UniProt P37231 P37231:1-505); experiment: EMSA; homodimer, no RXR; conditions: tags: rabbit reticulocyte lysate (Promega); label: 32P (T4-PNK)
# Sequence of PPARgamma2 (P37231 whole entry, one chain of several): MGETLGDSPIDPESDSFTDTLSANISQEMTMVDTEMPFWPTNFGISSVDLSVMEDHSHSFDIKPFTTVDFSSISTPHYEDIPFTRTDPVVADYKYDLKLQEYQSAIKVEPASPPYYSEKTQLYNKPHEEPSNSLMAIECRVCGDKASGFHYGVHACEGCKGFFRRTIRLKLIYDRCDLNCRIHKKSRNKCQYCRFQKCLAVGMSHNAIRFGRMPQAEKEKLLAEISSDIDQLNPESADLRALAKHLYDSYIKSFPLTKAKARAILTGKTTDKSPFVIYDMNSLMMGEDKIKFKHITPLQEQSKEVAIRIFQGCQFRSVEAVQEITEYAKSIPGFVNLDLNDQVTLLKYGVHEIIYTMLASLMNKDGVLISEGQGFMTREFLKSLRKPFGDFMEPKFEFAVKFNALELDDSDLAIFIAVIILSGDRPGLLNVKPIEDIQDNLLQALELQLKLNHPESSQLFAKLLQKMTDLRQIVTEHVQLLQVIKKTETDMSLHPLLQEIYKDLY
# Procedure: as §1, §2
# [2] = target: PPARgamma/RXRalpha heterodimer (hamster haPPARgamma) (hamster / Mus musculus, UniProt P57797;P28700 P57797:1-475,P28700:1-467); experiment: EMSA; pH 7.9, 40 mM KCl, on ice; conditions: tags: rabbit reticulocyte lysate (Promega); label: 32P (T4-PNK)
# Procedure: as §1, §2
# PPARγ expression = PPARγ expression in primary macrophages and monocytic cell lines; type: cell-based
# Excerpt: PPARγ is expressed in a subset of macrophages and negatively regulates the expression of several pro-inflammatory genes in response to its ligands. We recently discovered the presence of PPARγ in human macrophages foam cells of human atherosclerotic lesions. In these cells, PPARγ is present in a pattern correlated with that of oxidation-specific epitopes. Oxidized low-density lipoprotein (LDL) and macrophage colony stimulating factor (MCSF) are known to be present in atherosclerotic lesions. […] Furthermore, phorbol esters induced PPARγ expression.
# Sequence of PPARgamma2/RXRalpha heterodimer (P37231 whole entry, one chain of several): as above
Molecule,binding result [1],binding result (RXRalpha),binding result (PPARgamma2),binding result [2],PPARγ expression (PPARγ expression)
apoA-II J site PPRE (dsDNA) DNA 1: GATCCTTCAACCTTTACCCTGGTAGA DNA 2: TCTACCAGGGTAAAGGTTGAAGGATC,binds,no binding,no binding,binds,–
"MCSF: macrophage colony stimulating factor (protein, UniProt P09603 33-554, looked up) Macrophage colony-stimulating …: EEVSEYCSHMIGSGHLQSLQRLIDSQMETSCQITFEFVDQEQLKDPVCYLKKAFLLVQDIMEDTMRFRDNTPNAIAIVQLQELSLRLKSCFTKDYEEHDKACVRTFYETPLQLLEKVKNVFNETKNLLDKDWNIFSKNCNNSFAECSSQDVVTKPDCNCLYPKAIPSSDPASVSPHQPLAPSMAPVAGLTWEDSEGTEGSSLLPGEQPLHTVDPGSAKQRPPRSTCQSFEPPETPVVKDSTIGGSPQPRPSVGAFNPGMEDILDSAMGTNWVPEEASGEASEIPVPQGTELSPSRPGGGSMQTEPARPSNFLSASSPLPASAKGQQPADVTGTALPRVGPVRPTGQDWNHTPQKTDHPSALLRDPPEPGSPRISSLRPQGLSNPSTLSAQPQLSRSHSSGSVLPLGELEGRRSTRDRRSPAEPEGGPASEGAARPLPRFNSVPLTDTGHERQSEGSFSPQLQESVFHLLVPSVILVLLAVGGLLFYRWRRRSHQEPQRADSPLEQPEGSPLTQDDRQVELPV",–,–,–,–,stimulate PPARγ expression
